B1: Twister Ribozyme (parent)
chain: AACACUGCCAAUGCCGGUCCCAAGCCCGGAUAAAAGUGGAGGGGGCGG

The source of these data is the RNAGym collection of RNA variant scans (doi:10.7554/elife.80360).

The variants in the data set derive from B1. Description: self-cleavage, relative activity (ratio to wild type); higher = more cleavage; co-transcriptional.
AACACUGCCAAUGCCGGGCCCAAGCCCGGAUAAAAGUGGUGGGGGCGG [U18G A40U]: the self-cleavage worked out at 0.0452.

Regarding AACACUGCCAAUGCCGGUCCCAAGCCCGGGCAAAAGUGGAGGGGGCGG [A30G U31C], the self-cleavage is 0.988.

AACACUGCCAAUGCCGGUCCUAAGCACGGAUAAAAGUGGAGGGGGCGG [C21U C26A]: the self-cleavage worked out at 0.0796.

Take ACCACUGCCAAUGCCGGUCCCAAGCCCGGAUAAAACUGGAGGGGGCGG [A2C G36C]: the self-cleavage is 0.0351.

Consider AACACUCCCAAUGCCGGUCCGAAGCCCGGAUAAAAGUGGAGGGGGCGG [G7C C21G], for which the self-cleavage was found to be 0.0593.

For the variant AACACUGCCAAUGCCGGUCCCAAGCCCGGAUAAUAGUGGAUGGGGCGG [A34U G41U], the self-cleavage came out at 0.185.

Regarding AACACUGCCAAUGCCGGUCCCAAGCCCGGAUAAAAGUGGAAGGGGGGG [G41A C46G], the self-cleavage is 0.429.

In the case of AACACUGCCAAUGCCGGUCCCAAGCCCGGAUAAAAGGGGAGGCGGCGG [U37G G43C], the self-cleavage was determined as 0.0693.

Turning to AACACUGCCAAUGCCGGUCCCAACCCCGGAUAAAAGUGGAGGGGGCGC [G24C G48C], the self-cleavage is 0.116.

With AACACUGCAAAUGCCGGUCCCAAGCCCGGUUAAAAGUGGAGGGGGCGG [C9A A30U], the self-cleavage worked out at 0.725.

As to AAGACUGCCAAUGCCGGUCCCAAGCCCGGAGAAAAGUGGAGGGGGCGG [C3G U31G], the self-cleavage is 0.44.

As to AGCACUGCCAAUGCCGGUCCCAAGCCCGGAUAAAAGUGGAGGGGGCCG [A2G G47C], the self-cleavage was 0.212.

In the case of AACACUGCCAAUUCCGGUCCCAAGCCCGGAUAAAACUGGAGGGGGCGG [G13U G36C], the self-cleavage stood at 0.0949.

Regarding AACACUGCCAAUCCCGGUCCCAAACCCGGAUAAAAGUGGAGGGGGCGG [G13C G24A], the self-cleavage was found to be 0.0986.

AACACUGCCAAUACCGGUCCCAAGCCCGGAUAAAAGUGGCGGGGGCGG [G13A A40C]: the self-cleavage worked out at 0.224.

On to AACACUUCCAAUGCCGGUCCCAAGCCCGGAUAAAAGUGGAGGGGGCGA [G7U G48A], for which the self-cleavage was 0.078.

With AACACUCCCAAUGCCGGUCCCAAGCCCUGAUAAAAGUGGAGGGGGCGG [G7C G28U], the self-cleavage stood at 0.093.

As to AACACUGCCAAUCCCGGUCCCAAGCACGGAUAAAAGUGGAGGGGGCGG [G13C C26A], the self-cleavage was 0.0939.

Take AACACUGCUAAUGCCGGUCCCAAGCCCGGAUAAAAGUGUAGGGGGCGG [C9U G39U]: the self-cleavage worked out at 0.115.

Turning to AACACUACCUAUGCCGGUCCCAAGCCCGGAUAAAAGUGGAGGGGGCGG [G7A A10U], the self-cleavage is 0.505.

Take AACGCUGACAAUGCCGGUCCCAAGCCCGGAUAAAAGUGGAGGGGGCGG [A4G C8A]: the self-cleavage stood at 0.524.

Consider AACACUGCCAAUGCCGGUCCCACGCCCGGAUAUAAGUGGAGGGGGCGG [A23C A33U], for which the self-cleavage stood at 0.13.

For AACACUGGCAAUGCCGGUCCCAAGCCCGGAUUAAAGUGGAGGGGGCGG [C8G A32U], the self-cleavage stood at 0.322.

In the case of AACACUGCCAAUGACGGUCCCAAGCCCGGAUAAAAGUGGAGGUGGCGG [C14A G43U], the self-cleavage is 0.456.

AACACUGCCAAUGCGGGUCCCAAGCCCGGAUUAAAGUGGAGGGGGCGG [C15G A32U]: the self-cleavage amounted to 0.0633.

Turning to AACACUGCCAAUGCCGGUCCCAAGCGCGGAUAAAAGUGGAGGGCGCGG [C26G G44C], the self-cleavage came out at 0.149.

For the variant AACACUGCCAAUGCCGGUCCCAAUCCCGAAUAAAAGUGGAGGGGGCGG [G24U G29A], the self-cleavage came to 0.127.

As for AACACUGCCAAUGCCGGUCCCAAGCCCGGAUAAGAGUGUAGGGGGCGG [A34G G39U], the self-cleavage stood at 0.102.

Consider AACACUGUCAAUGCCGGUCCCAAGCCCGGAUAAAAGUGGAGGGCGCGG [C8U G44C], for which the self-cleavage amounted to 0.598.

For AACACUGCCAAUGCCGGUCGCAAGCCCGGAUAAAAGUGGAGGUGGCGG [C20G G43U], the self-cleavage came out at 0.0978.

In the case of AACACUGCCAAUGCCUGUCCCAAACCCGGAUAAAAGUGGAGGGGGCGG [G16U G24A], the self-cleavage was found to be 0.129.

For the variant AACACUGCCAAUGCCGGUCCCAAGCCCGGAUAAAAUAGGAGGGGGCGG [G36U U37A], the self-cleavage amounted to 0.177.

Regarding AACACUGCCAAUGCUGGUCCCAAGCCCGGAUAAAGGUGGAGGGGGCGG [C15U A35G], the self-cleavage turned out to be 0.659.

As to AACACUGCCAAUGCCGGGCCCAAGCCUGGAUAAAAGUGGAGGGGGCGG [U18G C27U], the self-cleavage was found to be 0.0822.

For the variant AACACUGCCAAUGCCGGUCCCAAGCCCGAUUAAAAGUGGAGGGGGCGG [G29A A30U], the self-cleavage stood at 0.709.

Regarding AACACUGCCAAUGCCGGUCCCAAGCCCGGAUAAAAGUGGAGGGGCAGG [G45C C46A], the self-cleavage turned out to be 0.564.

Consider AACACUGCCAAUACCGGUCCCAAGCCGGGAUAAAAGUGGAGGGGGCGG [G13A C27G], for which the self-cleavage came out at 0.073.

AACACUGCCAAUGCCGGUCCCAAGCCCGGAUAAAAGUGGAGUGGGUGG [G42U C46U]: the self-cleavage was found to be 0.383.

As for AACACUGCCAAUGCCGGUCCCAAGCCCGGAUAGAAGUGAAGGGGGCGG [A33G G39A], the self-cleavage stood at 0.362.

In the case of AACACUGCCAAUGCCGGUCCCAAGCCCGGAUAUAAGUGGAGGGGGGGG [A33U C46G], the self-cleavage stood at 0.921.

AACACUGCCAAUGCCGGUCCCCGGCCCGGAUAAAAGUGGAGGGGGCGG [A22C A23G]: the self-cleavage was 0.341.

Turning to AACAGUGCCAAUGCCCGUCCCAAGCCCGGAUAAAAGUGGAGGGGGCGG [C5G G16C], the self-cleavage worked out at 0.0784.

With AACACUGACAAUGCCGGUCCCAAGCCCGGAUAACAGUGGAGGGGGCGG [C8A A34C], the self-cleavage turned out to be 0.189.

Regarding AACACUGCCAAUGCCGGUCCCAAGCCCGGAUAAAAGUCGAGGGCGCGG [G38C G44C], the self-cleavage was determined as 0.853.

With AGCAUUGCCAAUGCCGGUCCCAAGCCCGGAUAAAAGUGGAGGGGGCGG [A2G C5U], the self-cleavage is 0.153.

As to AACACUCCCAAUGCCGGUCCCCAGCCCGGAUAAAAGUGGAGGGGGCGG [G7C A22C], the self-cleavage came to 0.0571.

With AACACUGCCAAUGCCGGUCCCAAGCCCGGAUAAAAGUGGGUGGGGCGG [A40G G41U], the self-cleavage came out at 0.166.

Take AACACUGCCAAUGCCGGCCCCCAGCCCGGAUAAAAGUGGAGGGGGCGG [U18C A22C]: the self-cleavage turned out to be 0.397.

In the case of AACACUGCCAAUGCAGGUCCCAAGCCCGGAUAAACGUGGAGGGGGCGG [C15A A35C], the self-cleavage stood at 0.546.

For GACACUGCCAAUGCCGGUCCCAAGCCCGGAUAAAAGUGGAAGGGGCGG [A1G G41A], the self-cleavage was 0.176.

On to AACACUGCCAAUGCCGGUCACAAGCCCGGAUAAAAGUGGAGGGGGGGG [C20A C46G], for which the self-cleavage was determined as 0.0871.

AGCACUGCCAAUGCCGGUCCCAAGCCCGGAUUAAAGUGGAGGGGGCGG [A2G A32U]: the self-cleavage was 0.401.

As to AACACUGCCCAUGCCGGUCCCCAGCCCGGAUAAAAGUGGAGGGGGCGG [A10C A22C], the self-cleavage was 0.993.

On to AACACUGCCAAUGCCGGUCCGACGCCCGGAUAAAAGUGGAGGGGGCGG [C21G A23C], for which the self-cleavage was 0.0558.
